Patent US11098333B2, “ATP phosphoribosyltransferase variant and method for producing L-histidine using the same” (priority 2017, dated 2021)
Where a chain is given by its changes, count along the chain named. In names and notes the source's numbering stands.

B1: HisG (N215R/G233H/T235Q): ATP phosphoribosyltransferase variant N215R/G233H/T235Q, SEQ ID NO: 1 (protein)
chain: MLKIAVPNKGSLSERAMEILAEAGYAGRGDSKSLNVFDEANNVEFFFLRPKDIAIYVAGGQLDLGITGRDLARDSQADVHEVLSLGFGSSTFRYAAPADEEWSIEKLDGKRIATSYPNLVRDDLAARGLSAEVLRLDGAVEVSIKLGVADAIADVVSTGRTLRQQGLAPFGEVLCTSEAVIVGRKDEKVTPEQQILLRRIQGILHAQNFLMLDYRVDRDNLDAATAVTPGLSHPQVSPLARDNWVAVRAMVPRRSANAIMDKLAGLGAEAILASEIRIARI
modifications: HisG
B2: HisG: wild-type Corynebacterium glutamicum ATP phosphoribosyltransferase, SEQ ID NO: 13 (protein)
chain: B1 chain with R215N, H233G, Q235T
modifications: HisG
B3: HisG (N215R/L231F/T235A): ATP phosphoribosyltransferase variant N215R/L231F/T235A (protein)
chain: B1 chain with L231F, H233G, Q235A
B4: HisG (N215K/G233H/T235Q): ATP phosphoribosyltransferase variant N215K/G233H/T235Q (protein)
chain: B1 chain with R215K
B5: HisG (G233H/T235Q): ATP phosphoribosyltransferase variant with G233H and T235Q substitutions (protein)
chain: B1 chain with R215N
B6: HisG (N215K/L231F/T235A): known HisG variant N215K/L231F/T235A (Biochimie. 2012 March; 94(3):829-38) (protein)
chain: B1 chain with R215K, L231F, H233G, Q235A
B7: HisG (N215R): ATP phosphoribosyltransferase variant with N215R substitution (protein)
chain: B1 chain with H233G, Q235T

Tests used:
[1] = system: ATP phosphoribosyltransferase (HisG); experiment: Measurement of activities of ATP phosphoribosyltransferases (UV 290 nm, cell supernatant); type: biochemical, Corynebacterium glutamicum; conditions: for Activity of ATP phosphoribosyltransferase (HisG): 30° C., UV 290 nm, no L-histidine
Experimental: Corynebacterium glutamicum ATCC 13032 and the strains HCJ-96, HCJ-161, HCJ-162, HCJ-163, HCJ-164, and HCJ-165 selected in Example 3 were each inoculated into a corner-baffle flask (250 mL) containing a seed medium (25 mL), and were cultured at 30° C. for 20 hours with shaking at 200 rpm to obtain a seed culture solution. Thereafter, the seed culture solution (1 mL) was inoculated into a corner-baffle flask (250 mL) containing a production medium (24 mL), and was cultured at 30° C. for 45 hours at 200 rpm. After the culture, the obtained cells were sonicated and centrifuged, and the supernatant obtained therefrom was used for evaluation of the activity of ATP phosphoribosyltransferase.
The activities of the ATP phosphoribosyltransferase variants obtained in Example 4-1 and that of a wild-type ATP phosphoribosyltransferase variant were measured. The evaluation of the activities of these enzymes was performed with reference to the conditions described in an existing literature report (Biochimie. 2012 March; 94(3):829-38.).
For the evaluation of the activities of the enzymes, the supernatant was quantified to give the same concentration. These enzymes were used as sample enzymes, and the reaction conditions were as follows: the reaction compositions were mixed to the quantified protein (0.05 mg) to give a total amount of 500 μL, and then measured at 30° C. at a UV wavelength of 290 nm for 90 seconds. With regard to the wild-type ATP phosphoribosyltransferase having low activity, the supernatant protein (0.3 mg) was used and measured at a UV wavelength of 290 nm for 30 minutes for the activity evaluation. The composition of the reaction solution for measuring the activities of the enzymes is as follows: […]

[2] = target: T1, ATP phosphoribosyltransferase (HisG) (Corynebacterium glutamicum, UniProt Q9Z472, G233H/N215R/T235Q); experiment: Degree of inhibition by L-histidine on activities of ATP phosphoribosyltransferase variants; type: biochemical; conditions: L-histidine 100 mM
T1 construct: made in house; host or cells: Corynebacterium glutamicum ATCC 13032 (wild type) and HCJ-96, -161, -162, -163, -164, -165 (chromosomal hisG alleles); unpurified supernatant of sonicated cells
Experimental: (§1) For the evaluation of the activities of the enzymes, the supernatant was quantified to give the same concentration. These enzymes were used as sample enzymes, and the reaction conditions were as follows: the reaction compositions were mixed to the quantified protein (0.05 mg) to give a total amount of 500 μL, and then measured at 30° C. at a UV wavelength of 290 nm for 90 seconds. With regard to the wild-type ATP phosphoribosyltransferase having low activity, the supernatant protein (0.3 mg) was used and measured at a UV wavelength of 290 nm for 30 minutes for the activity evaluation. The composition of the reaction solution for measuring the activities of the enzymes is as follows:
(§2) The degree of inhibition by L-histidine on the activities of ATP phosphoribosyltransferase and the ATP phosphoribosyltransferase variants obtained in Example 4-1 was measured. Specifically, the activities of these enzymes were measured in the reaction composition solution of Example 4-2, which contained L-histidine (0 mM, 50 mM, or 100 mM), using the method described in Example 4-2. […] However, the activities of the ATP phosphoribosyltransferase variants were less inhibited by L-histidine.

[3] = system: ATP phosphoribosyltransferase (HisG); experiment: as above; type: biochemical, Corynebacterium glutamicum; conditions: for Activity of Enzyme, 0 mM L-histidine: L-histidine 0 mM; for Activity of Enzyme, 50 mM L-histidine: L-histidine 50 mM; for Activity of Enzyme, 100 mM L-histidine: L-histidine 100 mM
Experimental: as §1, §2

[4] = target: T2, ATP phosphoribosyltransferase (HisG) (Corynebacterium glutamicum, UniProt Q9Z472); experiment: as above; type: biochemical; conditions: L-histidine 50 mM and 100 mM
T2 construct: made in house; host or cells: Corynebacterium glutamicum ATCC 13032 (wild type) and HCJ-96, -161, -162, -163, -164, -165 (chromosomal hisG alleles); unpurified supernatant of sonicated cells
T2 sequence (Q9Z472 whole entry, looked up): B1 chain with R215N, H233G, Q235T
Experimental: as §1, §2

Molecule	Activity of ATP phosphoribosyltransferase (HisG) [1] [U/mg]	activity fold higher than that of the wild-type enzyme ([1]; relative to wild-type enzyme)	activity in composition solution containing L-histidine (in words) [2]	Activity of Enzyme, 0 mM L-histidine [3] [U/mg]	Activity of Enzyme, 50 mM L-histidine [3] [U/mg]	Activity of Enzyme, 100 mM L-histidine [3] [U/mg]	inhibition of enzyme activity by L-histidine (in words) [4]
B1	2.082	about 160 fold	showed the highest activity	2.082	1.435	1.335	
B2	0.013			0.013	0	0	completely inhibited
B3	0.408			0.408	0.157	0	
B4	1.3			1.3	0.679	0.413	
B5	1.381			1.381	0.64	0.542	
B6	0.387			0.387	0.202	0.023	
B7	0.021			0.021	0	0	
